Measured values taken from patent US20160264649A1.

What was measured:
Experiment in all cases: cell-based or functional assay
[1] = target: HIV-1 Env of isolate 92UG001 (subtype D) (HIV-1)
[2] = target: HIV-1 Env of isolate 92UG005 (subtype D) (HIV-1)
[3] = target: HIV-1 Env of isolate 92UG024 (subtype D) (HIV-1)
[4] = target: HIV-1 Env of isolate 92UG046 (subtype D) (HIV-1)
[5] = target: HIV-1 Env of isolate 92UG114 (subtype D) (HIV-1)
[6] = target: HIV-1 Env of isolate 98CN006 (subtype CRF08_BC) (HIV-1)
[7] = target: HIV-1 Env of isolate 98CN009 (subtype CRF07_BC) (HIV-1)
[8] = target: HIV-1 Env of isolate MGRM-D-001 (subtype D) (HIV-1)
[9] = target: HIV-1 Env of isolate MGRM-D-002 (subtype D) (HIV-1)
[10] = target: HIV-1 Env of isolate MGRM-D-003 (subtype D) (HIV-1)
[11] = target: HIV-1 Env of isolate MGRM-D-004 (subtype D) (HIV-1)
[12] = target: HIV-1 Env of isolate MGRM-D-005 (subtype D) (HIV-1)
[13] = target: HIV-1 Env of isolate MGRM-D-008 (subtype D) (HIV-1)
[14] = target: HIV-1 Env of isolate MGRM-D-011 (subtype D) (HIV-1)
[15] = target: HIV-1 Env of isolate MGRM-D-012 (subtype D) (HIV-1)
[16] = target: HIV-1 Env of isolate MGRM-D-013 (subtype D) (HIV-1)
[17] = target: HIV-1 Env of isolate MGRM-D-014 (subtype D) (HIV-1)
[18] = target: HIV-1 Env of isolate MGRM-D-016 (subtype D) (HIV-1)
[19] = target: HIV-1 Env of isolate MGRM-D-018 (subtype D) (HIV-1)
[20] = target: HIV-1 Env of isolate MGRM-D-019 (subtype D) (HIV-1)
[21] = target: HIV-1 Env of isolate MGRM-D-020 (subtype D) (HIV-1)
[22] = target: HIV-1 Env of isolate MGRM-D-021 (subtype D) (HIV-1)
[23] = target: HIV-1 Env of isolate MGRM-D-022 (subtype D) (HIV-1)
[24] = target: HIV-1 Env of isolate MGRM-D-024 (subtype D) (HIV-1)
[25] = target: HIV-1 Env of isolate MGRM-D-026 (subtype D) (HIV-1)
[26] = target: HIV-1 Env of isolate MGRM-D-028 (subtype D) (HIV-1)
[27] = target: HIV-1 Env of isolate MGRM-D-029 (subtype D) (HIV-1)
[28] = target: HIV-1 Env of isolate MGRM-F1-004 (subtype F) (HIV-1)
[29] = target: HIV-1 Env of isolate MGRM-F1-006 (subtype F) (HIV-1)
[30] = target: HIV-1 Env of isolate MGRM-F1-008 (subtype F) (HIV-1)
[31] = target: HIV-1 Env of isolate MGRM-F1-010 (subtype F) (HIV-1)
[32] = target: HIV-1 Env of isolate MGRM-F1-012 (subtype F) (HIV-1)
[33] = target: HIV-1 Env of isolate MGRM-F1-013 (subtype F) (HIV-1)
[34] = target: HIV-1 Env of isolate MGRM-F1-014 (subtype F) (HIV-1)
[35] = target: HIV-1 Env of isolate MGRM-F1-015 (subtype F) (HIV-1)
[36] = target: HIV-1 Env of isolate MGRM-F1-016 (subtype F) (HIV-1)
[37] = target: HIV-1 Env of isolate MGRM-F1-017 (subtype F) (HIV-1)
[38] = target: HIV-1 Env of isolate MGRM-F1-018 (subtype F) (HIV-1)
[39] = target: HIV-1 Env of isolate MGRM-F1-020 (subtype F) (HIV-1)
[40] = target: HIV-1 Env of isolate MGRM-F1-021 (subtype F) (HIV-1)
[41] = target: HIV-1 Env of isolate MGRM-F1-022 (subtype F) (HIV-1)
[42] = target: HIV-1 Env of isolate MGRM-F1-023 (subtype F) (HIV-1)
[43] = target: HIV-1 Env of pseudovirus isolate MGRM-G-001 (subtype G) (HIV-1)
[44] = target: HIV-1 Env of pseudovirus isolate MGRM-G-004 (subtype G) (HIV-1)
[45] = target: HIV-1 Env of pseudovirus isolate MGRM-G-006 (subtype G) (HIV-1)
[46] = target: HIV-1 Env of pseudovirus isolate MGRM-G-009 (subtype G) (HIV-1)
[47] = target: HIV-1 Env of pseudovirus isolate MGRM-G-011 (subtype G) (HIV-1)
[48] = target: HIV-1 Env of pseudovirus isolate MGRM-G-013 (subtype G) (HIV-1)
[49] = target: HIV-1 Env of pseudovirus isolate MGRM-G-014 (subtype G) (HIV-1)
[50] = target: HIV-1 Env of pseudovirus isolate MGRM-G-015 (subtype G) (HIV-1)
[51] = target: HIV-1 Env of pseudovirus isolate MGRM-G-016 (subtype G) (HIV-1)
[52] = target: HIV-1 Env of pseudovirus isolate MGRM-G-017 (subtype G) (HIV-1)
[53] = target: HIV-1 Env of pseudovirus isolate MGRM-G-019 (subtype G) (HIV-1)
[54] = target: HIV-1 Env of pseudovirus isolate MGRM-G-024 (subtype G) (HIV-1)
[55] = target: HIV-1 Env of pseudovirus isolate MGRM-G-025 (subtype G) (HIV-1)
[56] = target: HIV-1 Env of pseudovirus isolate MGRM-G-027 (subtype G) (HIV-1)
[57] = target: HIV-1 Env of pseudovirus isolate MGRM-G-028 (subtype G) (HIV-1)
[58] = target: envelope of aMLV pseudovirus (negative control)

## PGT-121 (antibody)
[1]
  IC50 (neutralization): > 50 µg/mL
[2]
  IC50 (neutralization): 18.3 µg/mL
[3]
  IC50 (neutralization): > 50 µg/mL
[4]
  IC50 (neutralization): > 50 µg/mL
[5]
  IC50 (neutralization): 0.004 µg/mL
[6]
  IC50 (neutralization): 0.01 µg/mL
[7]
  IC50 (neutralization): 0.009 µg/mL
[8]
  IC50 (neutralization): 0.615 µg/mL
[9]
  IC50 (neutralization): 0.006 µg/mL
[10]
  IC50 (neutralization): 10.7 µg/mL
[11]
  IC50 (neutralization): > 50 µg/mL
[12]
  IC50 (neutralization): > 50 µg/mL
[13]
  IC50 (neutralization): > 50 µg/mL
[14]
  IC50 (neutralization): 0.018 µg/mL
[15]
  IC50 (neutralization): > 50 µg/mL
[16]
  IC50 (neutralization): > 50 µg/mL
[17]
  IC50 (neutralization): 0.009 µg/mL
[18]
  IC50 (neutralization): > 50 µg/mL
[19]
  IC50 (neutralization): 0.005 µg/mL
[20]
  IC50 (neutralization): > 50 µg/mL
[21]
  IC50 (neutralization): 0.01 µg/mL
[22]
  IC50 (neutralization): 5.33 µg/mL
[23]
  IC50 (neutralization): > 50 µg/mL
[24]
  IC50 (neutralization): 0.038 µg/mL
[25]
  IC50 (neutralization): > 50 µg/mL
[26]
  IC50 (neutralization): 0.009 µg/mL
[27]
  IC50 (neutralization): > 50 µg/mL
[28]
  IC50 (neutralization): 1.67 µg/mL
[29]
  IC50 (neutralization): 5.33 µg/mL
[30]
  IC50 (neutralization): > 50 µg/mL
[31]
  IC50 (neutralization): 0.016 µg/mL
[32]
  IC50 (neutralization): 1.91 µg/mL
[33]
  IC50 (neutralization): 0.083 µg/mL
[34]
  IC50 (neutralization): 0.082 µg/mL
[35]
  IC50 (neutralization): 28.4 µg/mL
[36]
  IC50 (neutralization): 0.931 µg/mL
[37]
  IC50 (neutralization): 16.9 µg/mL
[38]
  IC50 (neutralization): 0.04 µg/mL
[39]
  IC50 (neutralization): 0.167 µg/mL
[40]
  IC50 (neutralization): 0.099 µg/mL
[41]
  IC50 (neutralization): 0.104 µg/mL
[42]
  IC50 (neutralization): 0.097 µg/mL
[43]
  IC50: 0.004 µg/mL
[44]
  IC50: 0.115 µg/mL
[45]
  IC50: > 50 µg/mL
[46]
  IC50: 0.02 µg/mL
[47]
  IC50: 3.17 µg/mL
[48]
  IC50: 3.99 µg/mL
[49]
  IC50: 0.009 µg/mL
[50]
  IC50: > 50 µg/mL
[51]
  IC50: > 50 µg/mL
[52]
  IC50: 0.004 µg/mL
[53]
  IC50: 0.011 µg/mL
[54]
  IC50: 0.014 µg/mL
[55]
  IC50: 0.063 µg/mL
[56]
  IC50: 0.124 µg/mL
[57]
  IC50: 0.014 µg/mL
[58]
  IC50: > 50 µg/mL
